Holding throughout (experiment): MST; 10 mM MgCl2; MST: 20 mM HEPES pH 7.5, 10 mM MgCl2, 0.05% Tween-20; 420 nM labelled U30 with protein titrated, or labelled peptide with RNA titrated; temperature not stated
One data set addresses T1, hnRNPA2 LCD deltaNAID1 (human, UniProt P22626 200-353, del239-306).
T1 sequence: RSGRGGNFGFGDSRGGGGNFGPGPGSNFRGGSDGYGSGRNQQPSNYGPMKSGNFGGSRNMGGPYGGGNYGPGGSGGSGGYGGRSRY
The settings on record: protein: recombinant; (stated for LCD only).

A further data set addresses T2, hnRNPA2 LCD deltaNAID2 (human, UniProt P22626 200-306, del307-353).
T2 sequence: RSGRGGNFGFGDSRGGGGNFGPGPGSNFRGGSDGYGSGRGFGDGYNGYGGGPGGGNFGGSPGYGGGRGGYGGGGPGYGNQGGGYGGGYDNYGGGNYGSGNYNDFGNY
The settings on record: protein: recombinant; (stated for LCD only).

The target in a further data set is hnRNPA2 LCD (human, UniProt P22626 200-353). The settings on record: protein: recombinant; tags: 6xHis removed by TEV.
hnRNPA2 LCD, sequence (P22626 200-353): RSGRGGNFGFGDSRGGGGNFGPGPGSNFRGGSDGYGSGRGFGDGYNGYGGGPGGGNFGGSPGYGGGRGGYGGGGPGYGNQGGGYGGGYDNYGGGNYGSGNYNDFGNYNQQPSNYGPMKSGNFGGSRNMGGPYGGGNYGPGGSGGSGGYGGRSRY

Broadly, the Kd is the free concentration of one partner at which half of the binding sites on the other are occupied at equilibrium, for simple one-to-one binding.

B1: U30 (labelled) (ssRNA)
RNA: UUUUUUUUUUUUUUUUUUUUUUUUUUUUUU
For the molecule B1, the figures for the Kd in the data set with hnRNPA2 LCD deltaNAID1, with hnRNPA2 LCD deltaNAID2 and with hnRNPA2 LCD were 41 ± 1.4 µM, 13 ± 3 µM and 0.72 ± 0.002 µM, respectively.

Source of the values: PMC9067507, “F/YGG-motif is an intrinsically disordered nucleic-acid binding motif”.
